Reference: PMC10726570

How the values were obtained:
[1] = molecular target: human neonatal Fc receptor (human-FcRn) (human) (UniProt P55899)
[2] = molecular target: human neonatal Fc receptor (human-FcRn) (human) (UniProt P55899); assay: SPR; format and conditions not told in the text (who was immobilised, pH, buffer); shown in Fig. S1B-C
[3] = molecular target: monkey neonatal Fc receptor (monkey-FcRn) (monkey) (UniProt Q8SPV9); assay: as above

“PAT101, recombinant human albumin (rHA)-conjugated Aspergillus flavus urate oxidase (from UniProt Q00511 1-302; P02768 25-609) (complex)” was tested, and the plasma half-life T1/2 (uricase activity) after a single i.v. dose in TG mice expressing human FcRn [1] was 95 h, the Kd [2] was 2940 nM and the Kd [3] was 6.85 µM.
